We go through 1 molecule from patent US20250215071A1, “Novel Mcl-1 inhibitor and combination of Mcl-1 and a BH3 mimetic, such as a Bcl-2 inhibitor” (NETRIS PHARMA, priority 2022, published 2025).

This assay deals with EMT6 cells. Briefly: EMT6 syngeneic breast tumor model, tumor growth and survival. In kind it is in vivo, BALB/c mice. Particulars: NP137 20 mg/Kg loading then 10 mg/Kg i.v.; Venetoclax 5 mg/Kg oral gavage; vs isotypic control antibody. As for the experimental part:
FIG. 8. Combining netrin-1 interference and BH3 mimetics inhibits tumor growth in preclinical in vivo and ex vivo models. ((A,B,C): Combining netrin-1 interference and Bcl-2 inhibition restrains tumor growth in a syngeneic breast cancer model. EMT6 cells were engrafted in BALB/c mice and, once tumors reached a volume of 50 mm^3, treated with isotypic (Iso-mAb) or NP137 antibodies and the Bcl-2 inhibitor Venetoclax, as single agents or in combination. Tumor volumes were measured at the indicated days after the first treatment (n=9, ** p<0.01, ordinary two-way ANOVA with Tukey's multiple comparisons test) (A,B). Survival rate was assessed at sacrifice of mice with tumors more than 500 mm^3 (C). (D,E,F): Combined treatment is efficient to induce apoptosis in human ex vivo slices. Cleaved active caspase-3-positive cells were assessed by IHC staining in fresh ex vivo breast tumor tissue slices. […]
FIG. 9. […] 24 hours later, apoptosis was quantified by Annexin V/propidium iodide (PI) staining. EC50 values were calculated using nonlinear regression of Dose-response curves with GraphPad Prism software. […] Apoptosis was then evaluated by 5′,6,6′-tetrachloro-1,1′,3,3′-tetraethylbenzimi-dazolylcarbocyanine iodide (JC-1) dye staining, using NucleoCounter NC3000 (n=2, *p<0.05, ordinary two-way ANOVA with Tukey's multiple comparisons test). […]

B1: NP137: humanized anti-netrin-1 monoclonal antibody, VH SEQ ID NO: 22, VL SEQ ID NO: 16, human IgG1 (antibody, V domains shown)
VH: QVQLQQSGPGLVKPSQTLSLTCAISGYTFTSYNMHWVRQATGQGLEWMGAIYPGNGDTSYNQKFKGRLTISKDTSKNQVVLTMTNMDPVDTATYYCARGGTGFAYWGQG
VL: DIQMTQSPSSLSASVGDRVTITCKASQSVSNDVAWYQQKPGQAPRLLIYYASNRYTGIPPRFSGSGYGTDFTLTINNIESEDAAYYFCQQDYSSPWTFGQG
modifications: human IgG1 constant region; humanized variant; MISC_FEATURE - CDR according to IGMT
Consider B1, for which the tumor growth result was “no effect on tumor growth”.
